Target: T1, GluA2Qflip (Rattus norvegicus, UniProt P19491)
T1 construct: expressed in transfected cells; host or cells: HEK-293S
Assay: Whole-cell current recording, GluA2Qflip in HEK-293 cells
Type: cell-based
From the text: The original cDNAs in pBlueScript encoding rat GluA1, 2 and 3 AMPA receptors and GluK2 kainate receptor were kindly provided by Steve Heinemann. The GluA4 DNA plasmid was kindly provided by Peter Seeburg. The GluK1 plasmid was kindly provided by Geoffrey Swanson. The cDNAs of all three NMDA receptor subunits were gifts from John Woodward. All DNA plasmids were propagated using Escherichia coli host (DH5α) and purified using QIAGEN DNA purification kits.
All of the receptors were transiently expressed in HEK-293S cell. HEK-293S cells were maintained in Dulbecco's modified Eagle's medium (DMEM) supplemented with 10% fetal bovine serum and 1% penicillin in a 37° C., 5% CO2, humidified incubator. Receptors were transiently transfected by using calcium phosphate or lipofectamine 2000 (Invitrogen). The DNA plasmids encoding green fluorescent protein (GFP) and T-antigen (TAg) were cotransfected in HEK-293 S cells. GFP was used as a transfection marker for cell recording, and TAg was cotransfected to potentiate the receptor expression at the single-cell level^6. Transfected cells were allowed to grow for 48 hour before they were used for recording.
The procedure for whole-cell current recording to assay the inhibitory property of an RNA aptamer is known to those of skill in the art and has been previously described^7. […] The extracellular buffer composition is described above (see “Receptor Preparation”). For recording of the NMDA channels, the intracellualr solution contained (in mM) 140 CsCl, 1 MgCl2, 0.1 EGTA, and 10 HEPES (pH 7.2 adjusted by […]), while the extracellular solution contained (in mM) 135 NaCl, 5.4 KCl, 1.8 CaCl2, 10 glucose and 5 HEPES (pH 7.2 adjusted by NaOH). In the extracellular buffer, 2 μM of glycine was added (glycine was the co-agonist of NMDA receptor)^2. All reagents including aptamer were dissolved in the corresponding extracellular buffer and used. […] The whole-cell current was recorded using an Axopatch-200B amplifier at a cutoff frequency of 2-20 kHz by a built-in, eight-pole Bessel filter and digitized at 5-50 kHz sampling frequency using a Digidata 1322A from Axon Instruments (Molecular Devices, Sunnyvale, Calif.). The pClamp 8 software (Molecular Devices) was used for data acquisition. All whole-cell recordings were at −60 mV and 22° C.
To deliver AG56 to a HEK-293 cell, a “Ψ”-shaped flow device was used. […] In all experiments reported in this study, a 6-second preincubation flow protocol was used for full aptamer preincubation. […] The corrected current amplitude was used for data analysis.
Determination of KI,app by the ratio of the current amplitude in the absence and presence of inhibitor or A/A(I)—see FIG. 5 in the text. Equ. 10a and 10b were derived based on one inhibitor binding to the receptor. KI, app is the apparent inhibition constant for the inhibitor; other terms have been defined previously.
Under this condition, the inhibition constant for the closed-channel conformation was determined from the ratio of the amplitude according to equ. 10a and 10b. Likewise, at a saturating ligand concentration (i.e., L>>K1), the majority of the receptors were in the open-channel state. Consequently, the inhibition constant associated with the open-channel conformation was measured. The basis of using the two ligand concentrations that corresponded to ˜4% and ˜96% fraction of the open-channel receptor form^7 to determine the corresponding inhibition constant was a putative difference in inhibition constant between the closed-channel and the open-channel conformation. At those low and high ligand concentrations^7, the apparent inhibition constants obtained were considered pertinent to the closed-channel and the open-channel conformations, respectively. Examples of using the current amplitude to determine the inhibition constant for an inhibitor include our previous study of two 2,3-benzodiazepine derivatives with the GluA2Qflip AMPA receptor^15.

T1 sequence (P19491 22-883 isoform P19491-2): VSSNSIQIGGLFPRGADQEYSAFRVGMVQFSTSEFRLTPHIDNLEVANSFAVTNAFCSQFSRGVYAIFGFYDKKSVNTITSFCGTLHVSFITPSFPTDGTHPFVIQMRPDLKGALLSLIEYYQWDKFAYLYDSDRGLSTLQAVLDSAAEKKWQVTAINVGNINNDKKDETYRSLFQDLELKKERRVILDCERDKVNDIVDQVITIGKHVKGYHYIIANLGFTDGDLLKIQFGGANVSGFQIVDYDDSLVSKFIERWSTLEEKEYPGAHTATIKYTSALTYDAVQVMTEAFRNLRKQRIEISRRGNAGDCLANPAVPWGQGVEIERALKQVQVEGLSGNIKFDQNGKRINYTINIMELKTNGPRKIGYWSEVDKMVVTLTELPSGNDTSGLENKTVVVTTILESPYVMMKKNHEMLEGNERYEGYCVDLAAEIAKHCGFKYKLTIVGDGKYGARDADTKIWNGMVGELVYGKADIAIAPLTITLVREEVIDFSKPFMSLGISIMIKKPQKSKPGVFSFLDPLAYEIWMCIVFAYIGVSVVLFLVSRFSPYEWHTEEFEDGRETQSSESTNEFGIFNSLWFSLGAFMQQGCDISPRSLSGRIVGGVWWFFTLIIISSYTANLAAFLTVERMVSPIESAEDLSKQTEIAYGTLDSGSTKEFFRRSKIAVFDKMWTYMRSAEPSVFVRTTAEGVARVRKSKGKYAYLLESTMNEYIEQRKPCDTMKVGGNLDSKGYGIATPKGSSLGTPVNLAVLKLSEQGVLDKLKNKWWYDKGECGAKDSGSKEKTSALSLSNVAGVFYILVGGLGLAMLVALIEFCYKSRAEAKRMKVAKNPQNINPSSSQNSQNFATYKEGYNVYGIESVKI

| Molecule | inhibitory function of shorter versions of AG1407, based on A/A(I) (GluA2Qflip) | A/A(I) value (0.5 μM AG1407, 0.5 mM glutamate) | A/A(I) value (0.5 μM AG1407, 3 mM glutamate) | A/A(I), ratio of current amplitudes in absence and presence of aptamer (500 nM aptamer, 3 mM glutamate) | inhibition of the open-channel conformation (GluA2Qflip, high glutamate concentration) |
| --- | --- | --- | --- | --- | --- |
| 48 nt RNA: truncated AG1407 version with base-paired stem in first stem-loop region truncated (GGAGAAUCAACUCAUCUAGAGAUUGUGAAGCGUAGGCUCGAUUUGUCC; listed as RNA, chemistry not given here) | total loss of inhibitory function | – | – | – | – |
| 45 nt RNA: truncated AG1407 version with the bulge at the U50 position removed (GGUUCAACUGCCAUCUAGGCAGAUUGUGAAGCGUAGGCUCGAGCC; listed as RNA, chemistry not given here) | total loss of inhibitory function | – | – | – | – |
| 46 nt RNA: truncated AG1407 version with three-way junction shortened by deleting UUGUGA sequence (GGAGAAUCAACUGCCAUCUAGGCAGAAGCGUAGGCUCGAUUUGUCC; listed as RNA, chemistry not given here) | total loss of inhibitory function | – | – | – | – |
| AG1407: full length 100-nt RNA aptamer, most enriched SELEX sequence against GluA2Qflip (nucleic acid, RNA, backbone not given here) GGGAGAAUUCAACUGCCAUCUAGGCAGAUUGUGAAGCGUAGGCUCGAGUUUGUCCCGCGAGCCAAAGAUUCCAGAAGUACUACAAGCUUCUGGACUCGGU | – | significantly larger than 1.0 | significantly larger than 1.0 | one of the most potent inhibitors | inhibited the open-channel |

Reference: US8748407B2 (The Research Foundation for the State University of New York, priority 2010, dated 2014)
